# Experimental data: the supplement of paper PMC10724198
# ± gives the standard deviation of the averaged measurements.
# Test system: Saccharomyces cerevisiae
# Assay: protein stability index of tFT-peptide fusion (C-terminal peptide) (PSI (0-1 scale)); higher = more stable (slower turnover)
# Details: genetic background: wild type; temperature: 30 C
# Method: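 Multiplexed protein stability (MPS) profiling in S. cerevisiae. Random 12-aa peptides (tFT-X12 library) are fused to the C-terminus of a sfGFP-mCherry tandem fluorescent timer, after mCherry and a GGGS linker. Cells are FACS-sorted into 8 mCherry/sfGFP bins and deep-sequenced. The protein stability index (PSI) is the read-weighted bin average, scaled from 0 (unstable) to 1 (stable). Only peptides with >10 reads are reported; cells were grown at 30 °C in SC-His with glucose.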
# 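Further: PSI is a weighted mean of sequencing reads over stability bins, variants kept only with over 10 reads, mCherry proximal and sfGFP distal, peptide attached via GGGS linker.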
row,Sequence,protein stability index
1,LPPLLGPSPCPP,0.604 ± 0.015
2,VAGLQGGSGEGG,0.576 ± 0.06
3,KFIVQNENSGQC,0.677 ± 0.041
4,PSALLGTCRCVQ,0.706 ± 0.028
5,LGILSERIGRAL,0.7713 ± 0.0036
6,FFPELSNLHPPS,0.708 ± 0.017
7,AVGLCGARSLGG,0.634 ± 0.048
8,EGRDDIVEKKRR,0.66 ± 0.063
9,KIRRIHRNVVKG,0.786 ± 0.055
10,VPGYLLIDFWWV,0.5707 ± 0.001
11,LSPGLPRLLVKM,0.669 ± 0.033
12,KIMIGQPDGINV,0.65 ± 0.015
13,VLFPLPFPCVSF,0.681 ± 0.06
14,GGPGGGVSGWEG,0.704 ± 0.12
15,PPPYPSYPPRPN,0.724 ± 0.032
16,ERTDEKTAEKER,0.7012 ± 0.0049
17,SRSGVKKDIRKL,0.657 ± 0.059
18,FSGGGRGLGGEV,0.684 ± 0.024
19,AGRRVPVMMYGS,0.691 ± 0.022
20,PTLPPHSLRPPP,0.692 ± 0.018
21,VRRGHEGCGLRY,0.717 ± 0.025
22,PPPPPLPPPSPF,0.734 ± 0.06
23,VGCPLSLDAPEG,0.687 ± 0.029
24,AGAGLGVVLGWW,0.684 ± 0.017
25,KERKNKKINRKF,0.686 ± 0.093

row,Sequence,protein stability index
1,ERNSKKKRKRRL,0.701 ± 0.08
2,PAPLPPPPPPRP,0.689 ± 0.015
3,LPSLDSVCLLFP,0.685 ± 0.026
4,QCAIRQCCLVSL,0.574 ± 0.064
5,SLLLRVLCGRLS,0.5104 ± 0.0037
6,PSLCFLPPPPSP,0.686 ± 0.0076
7,AVYRPFPFRSGI,0.699 ± 0.015
8,APPVILPPSGPP,0.654 ± 0.028
9,PPSLPPPSPAPL,0.682 ± 0.03
10,EAVNLDSWAAGQ,0.828 ± 0.058
11,VAESGRGAGGDF,0.7314 ± 0.0029
12,FRVHSFRLSCLS,0.574 ± 0.022
13,KNKKKKKTKKKK,0.792 ± 0.079
14,SLTTPGMSQAYY,0.703 ± 0.034
15,SLCTSVPEPPFS,0.687 ± 0.0072
16,LWGGGVGGVRGV,0.641 ± 0.027
17,KKKKKKKESRSS,0.68 ± 0.045
18,GVWVASCSGAGI,0.632 ± 0.033
19,LLLFSILPFCLF,0.53 ± 0.073
20,VRWGVGVGVGWD,0.682 ± 0.057
21,LNHTRKDSLLTC,0.667 ± 0.014
22,AGVASTETREGG,0.685 ± 0.0073
23,VLGVGSFCLGVV,0.622 ± 0.018
24,SLWVLPGPVVLG,0.621 ± 0.039
25,LQFAQLLDISIT,0.696 ± 0.062

row,Sequence,protein stability index
1,VGHRGVQAGGVG,0.618 ± 0.016
2,PRDSRPLPAYSL,0.591 ± 0.028
3,FVGSVFWCWSGR,0.706 ± 0.032
4,KKKNKENKKKKK,0.737 ± 0.023
5,GLKVVENWIECA,0.555 ± 0.044
6,RKQHKLRKTKRA,0.657 ± 0.061
7,CVLPVSVIWVLR,0.575 ± 0.018
8,SPGNLPMSSSLL,0.686 ± 0.022
9,TFQMAYHSRTAV,0.637 ± 0.13
10,DVGSRGPPHTDG,0.687 ± 0.074
11,TLGLTLSAFALT,0.635 ± 0.043
12,FDSSLFTVSQYH,0.768 ± 0.084
13,PPLPLPGPDHHL,0.731 ± 0.087
14,PSPSWYGRRLLG,0.659 ± 0.027
15,RADQGGVVNGEG,0.732 ± 0.055
16,TFPPSAPQSSCS,0.7041 ± 0.0027
17,WLGTGIILPITG,0.793 ± 0.13
18,GFSGLRGFWSGM,0.713 ± 0.04
19,GRRAGGTGAPSR,0.642 ± 0.016
20,LDVSGEVRVGRG,0.629 ± 0.013
21,GLNPPDPYPVSF,0.754 ± 0.11
22,PFIPPPRFPPPV,0.835 ± 0.074
23,ASFMSPPSAPLA,0.6953 ± 0.0047
24,KWLAQLEHEKYN,0.696 ± 0.025
25,CRGPTQFAGPAP,0.68 ± 0.088

row,Sequence,protein stability index
1,GWKLGAGRRGVI,0.704 ± 0.029
2,PPGQRGRRDRAA,0.647 ± 0.015
3,SSSYPFPAPALR,0.683 ± 0.043
4,PSPAPRPFAPLP,0.69 ± 0.01
5,PYRFRDRTYEEL,0.673 ± 0.022
6,PPSPPPPPAHPP,0.597 ± 0.01
7,WFFRSVVPRCGG,0.63 ± 0.038
8,VIDTGAGSILEI,0.7 ± 0.042
9,GQCRTELVGLWE,0.664 ± 0.13
10,PTREGSDGMVGN,0.702 ± 0.021
11,GPGVFGGFRTEK,0.648 ± 0.056
12,NKIDNNKKIHRV,0.699 ± 0.053
13,AIGAVEGGRMRE,0.5748 ± 0.0048
14,KIDEQNKNKMGM,0.615 ± 0.082
15,LPPPVFPLRLSL,0.703 ± 0.027
16,YSVLVSLLPPSL,0.681 ± 0.031
17,SAQHPSTRHRPP,0.6 ± 0.035
18,VRNPPPLTRTRP,0.687 ± 0.0097
19,EIERTKNEGEEG,0.67 ± 0.058
20,VYFLRLERVPSF,0.696 ± 0.017
21,SPPLLLPNLCPC,0.543 ± 0.023
22,LCGPKIGFVVSR,0.704 ± 0.04
23,WLVGSGGVWSGR,0.706 ± 0.019
24,ISLGVDFSFCSL,0.7014 ± 0.0042
25,RVVGCPPLLLPP,0.639 ± 0.035

row,Sequence,protein stability index
1,PTLLRRVPPVPL,0.677 ± 0.087
2,PLVQSSCCRNYY,0.7 ± 0.04
3,KGKNTEKEEEEK,0.685 ± 0.019
4,SRRGVVGLRVGI,0.674 ± 0.033
5,GKIEVNTRIPGG,0.646 ± 0.078
6,PPHPPPRLPPPP,0.724 ± 0.043
7,WHIEGFGQYYSL,0.736 ± 0.019
8,TLSSLVGACLYV,0.614 ± 0.038
9,RGHPRRRPERKA,0.707 ± 0.09
10,FGVVCIGVLGGV,0.5361 ± 0.0014
11,APPRPHTPLPRP,0.75 ± 0.07
12,TLLAALIRFDAV,0.691 ± 0.041
13,PAAVAQAFPLIT,0.649 ± 0.05
14,GLSWTVDDGHGG,0.683 ± 0.039
15,SLPLHFISGFYV,0.6586 ± 0.0043
16,PRRFPFRHATSP,0.635 ± 0.084
17,RTAGSARIESAL,0.645 ± 0.017
18,QFSSPPLPLLSP,0.629 ± 0.035
19,TIMRGEPGQSHF,0.741 ± 0.089
20,GGTGGWVVNRGV,0.706 ± 0.079
21,PVPLLHPRSLSL,0.781 ± 0.074
22,SPPYPPPPVAST,0.707 ± 0.013
23,PFSGPVYSHNDV,0.738 ± 0.08
24,KKRHYSCYKNTN,0.725 ± 0.015
25,IINKRYEFRERT,0.764 ± 0.03

row,Sequence,protein stability index
1,GAKVALLSFGFA,0.667 ± 0.1
2,GVWGVGGGGGGR,0.634 ± 0.088
3,SSPSFVVFPFVS,0.685 ± 0.017
4,RIIIRNIKKKTE,0.641 ± 0.023
5,TARSTSPHHIPR,0.835 ± 0.22
6,VRLELIRSKLSR,0.701 ± 0.022
7,CVRPAPGSGGWQ,0.6429 ± 0.0041
8,LGAMTQEADGTG,0.639 ± 0.078
9,TFSFPSPAPHSC,0.781 ± 0.033
10,NKREYYWINLEC,0.562 ± 0.014
11,FLISLPLPAPLP,0.679 ± 0.013
12,SPWFRSAASTPT,0.786 ± 0.082
13,VVFQSLPCLSPP,0.758 ± 0.037
14,VKQFLICKNGRS,0.728 ± 0.12
15,STAELSNSLIGR,0.703 ± 0.033
16,IRTITSVQTFPE,0.673 ± 0.029
17,PRALLCLLSRPC,0.722 ± 0.1
18,LPLPPLPPPSCP,0.718 ± 0.032
19,RKRTIVCRPGRV,0.698 ± 0.021
20,VERSEGRLGVVG,0.686 ± 0.08
21,RLLENVSYDWRN,0.714 ± 0.016
22,CGALRLPSSREV,0.604 ± 0.021
23,QNQILNKKVIFK,0.681 ± 0.056
24,DRSTGVNKSFPS,0.7 ± 0.074
25,PLPSLLLLPPFP,0.701 ± 0.058

row,Sequence,protein stability index
1,GSVLFPLPFRPF,0.64 ± 0.11
2,KQKQRKERIKRK,0.688 ± 0.069
3,PRRPPPLPPASF,0.713 ± 0.047
4,PHSPSSPTIPSS,0.7363 ± 0.0069
5,WRLFFGVNLIKF,0.622 ± 0.037
6,HSASSDAGIKVR,0.718 ± 0.0083
7,PMADACPAPPPQ,0.643 ± 0.041
8,SFISPFFCTRPV,0.638 ± 0.012
9,RSGGVRCNDVRR,0.675 ± 0.05
10,VRDVIGWGEEEY,0.708 ± 0.017
11,SLDQGSSSLFIM,0.731 ± 0.082
12,PLFLLPSSPPAS,0.757 ± 0.06
13,DENLYGGFRTSM,0.725 ± 0.0078
14,FDITGAGLDSSF,0.7904 ± 0.0053
15,KLSSQAWMISEK,0.695 ± 0.055
16,QSKFNKFPIVET,0.656 ± 0.046
17,EIRKGGVRSTSN,0.668 ± 0.13
18,TLFSVGSDAMIV,0.708 ± 0.041
19,KKTQKNIKKKAK,0.679 ± 0.025
20,PSPPVMSPEVAC,0.627 ± 0.038
21,WVGGGGGPSGVV,0.733 ± 0.042
22,KKSIVEARLSNM,0.58 ± 0.075
23,NLRQKQKKIKKT,0.642 ± 0.041
24,KNKKKNKNNKKK,0.7048 ± 0.00079
25,EEEGRRREEETS,0.67 ± 0.041

row,Sequence,protein stability index
1,HPSNMYSGDEAP,0.68 ± 0.01
2,RDDDSKDKRTEI,0.684 ± 0.065
3,QMSHTGPTTIQS,0.695 ± 0.023
4,YLGCPSHLALPL,0.721 ± 0.076
5,NRTGVRIEIKGR,0.636 ± 0.081
6,WDGWPTRAGGTG,0.7141 ± 0.0069
7,PLPPLPPPLPAP,0.705 ± 0.052
8,PPPLPVFPRPPP,0.682 ± 0.012
9,RLLFPPPMLPPP,0.735 ± 0.038
10,TKFSSPPLVRTS,0.71 ± 0.031
11,PSPASPPPPPLP,0.714 ± 0.2
12,RPPYIALAPSDR,0.694 ± 0.0097
13,GWTGEVGVAAGA,0.65 ± 0.064
14,EKNTNVDHNRNF,0.7384 ± 0.0061
15,VFFPLFLNGSNV,0.695 ± 0.018
16,SAVRLGANLCRT,0.6979 ± 0.0057
17,RKVTKLYDNIML,0.776 ± 0.1
18,RSYSSTGAGDDK,0.721 ± 0.15
19,LWAYRFAAGEVH,0.589 ± 0.08
20,AGSRGIVREIVL,0.68 ± 0.052
21,YPSLPTLCSKQP,0.643 ± 0.084
